pyrene = pyrene label
Assays:
Format in all cases: in vivo
Aβ plaques [1] = biological target: T1, Aβ plaques (Homo sapiens, UniProt P05067); assay: Fluorescent labeling of Aβ plaques in brain after intravenous administration to hAPP transgenic mice (Example 3); conditions: intravenous 30 mg/kg, tail vein, 6 hours after administration
T1 construct: from tissue; host or cells: brain of living hAPP transgenic mice (in vivo dosing, brain sections imaged)
Experimental: hAPP transgenic mice were administered the Aβ peptide-agent conjugate described above intravenously at a dose of 30 mg/kg through the tail vein. Mice were sacrificed at 6 hours after the administration of the conjugate, and brain sections were prepared for imaging as described above. After a section was imaged for conjugate fluorescence, it was bleached of fluorescence and stained with a Thioflavin S stain.

[2] = Clearance of conjugate determined by analysis of cerebrospinal fluid; conditions: 6 hours post-administration; CSF revealed no evidence of circulating conjugate
Experimental: The rate of localization and clearance or degradation of a conjugate can be assessed experimentally, for example, by administering the conjugates to mice and sacrificing them for analysis at different times post-administration, such as at time periods including 2 minutes, 10 minutes, 30 minutes, 60 minutes, 1 hour, 2 hours, 3 hours, 4 hours, 5 hours, 6 hours, or longer, post-administration.

Aβ plaques [3] = biological target: T1, Aβ plaques; assay: Intranasal administration of peptide agent conjugate to hAPP751SL transgenic mice and littermate controls, brain fluorescence imaging (Example 1)
Text: The following illustrates the ability of peptide agent conjugates to target Aβ plaques (e.g., insoluble self-aggregates of Aβ protein associated with Alheimer's disease) in vivo. A peptide agent specific for Aβ corresponding to residues 16-35 of the Aβ protein (SEQ ID NO:3) with an added C-terminal lysine residue (e.g., SEQ ID NO:5) for conjugating pyrene, and labeled at each terminus with pyrene is used.
In vivo studies use four homozygous hAPP751SL transgenic 10 month old mice and four littermate controls (siblings not carrying the transgene). The labeled peptide agent conjugate is administered intranasally, at 10 μl liquid per administration (at concentrations of from 0.1 to 2.0 mg/ml) with an administration interval of a planned half of an hour, adjusted according to the condition of the animal after treatment.
At the end of the treatment, mice are sacrificed and CSF and brains are extracted. (All mice are sedated by standard inhalation anaesthesia, Isofluran, Baxter).
Cerebrospinal fluid is obtained by blunt dissection and exposure of the foramen magnum. Upon exposure, a Pasteur pipette is inserted to the approximate depth of 0.3-1 mm into the foramen magnum. CSF is collected by suctioning and capillary action until flow fully ceases. CSF is immediately frozen and kept at −80° C. until use.
After CSF sampling, the stomach, stomach content and the brains are rapidly removed. Brains are hemisected, and the right hemisphere of all mice are immersion fixed in freshly produced 4% Paraformaldehyde/PBS (pH 7.4) for one hour at room temperature, and transferred to a 15% sucrose/PBS solution for 24 hours to ensure cryoprotection. Thereafter, brains are frozen in liquid isopentane on the next day and stored at −80° C. until used for histological investigations. The other brain half is immediately shock frozen in liquid isopentane for future use.
To assess the specifity of staining by the peptide agent conjugate, fluorescence is excited using a UV-2A and B-1E filter of a microscope to detect probable auto-fluorescence in the lower spectrum. […]

Aβ plaques [4] = biological target: T1, Aβ plaques; assay: Fluorescent labeling of Aβ plaques in brain after intranasal administration to hAPP transgenic mice (Example 2); conditions: for fluorescent labeling of Aβ plaques (FIG. 1): three 10 μl injections at 20 minute intervals, sacrificed 6 hours later, hAPP transgenic mice
Experimental: Three groups of three hAPP transgenic mice were treated with vehicle (10% DMSO), the Aβ peptide-agent conjugate described above, or pyrene butyrate. Mice received three 10 μl injections at 20 minute intervals over a one hour period. Mice were sacrificed 6 hours later and tissues were collected. Flourescence in sagital sections was performed using fixed frozen tissue and a UV-2A fileter-equipped microscope. All plaque counts were performed on a digital images using Image-Pro-Plus software (Media Cybernetics, Inc., Bethesda, Md.).

T1 sequence (P05067 672-713 limits assumed): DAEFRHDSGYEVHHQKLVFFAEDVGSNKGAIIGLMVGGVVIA

| Substance | correlation between conjugate fluorescence and Thioflavin S staining (Aβ plaques [1]; cortex (FIG. 3A)) | correlation between conjugate fluorescence and Thioflavin S staining (Aβ plaques [1]; hippocampus (FIG. 3B)) | clearance, as determined by analysis of cerebrospinal fluid [2] | binding to amyloid in the brain (Aβ plaques [3]; hAPP751SL transgenic mice) | localization and binding in the brain (Aβ plaques [3]; nontransgenic mice) | crossing of the blood-brain barrier (BBB) (Aβ plaques [3]; transgenic mice treated with the highest dose, brain images vs control mice and transgenic vehicle control) | correlation between conjugate fluorescence and Thioflavin S staining (Aβ plaques [4]; hippocampus (data not shown)) | coincidence of conjugate fluorescence with 6E10 antibody and Thioflavin S plaque staining (Aβ plaques [4]; sequential sagital brain sections, co-merged images) | fluorescent labeling of Aβ plaques (FIG. 1) (Aβ plaques [4]) |
| --- | --- | --- | --- | --- | --- | --- | --- | --- | --- |
| AD185: Peptide of residues 16-35 of the Aβ protein with added C-terminal lysine (SEQ ID NO:5), labeled at each terminus with pyrene (pyrene-KLVFFAEDVGSNKGAIIGLMK-pyrene) | significant correlation | significant correlation | cleared | binds to the amyloid and agglomerates outside the blood vessel in the brain | reaches the olfactory bulb, but does not bind to a specifiable morphological structure | crosses the blood-brain barrier | positive correlation | coincided with the antibody and Thioflavin S plaque staining | showed fluorescent labeling of Aβ plaques |
| pyrene butyrate [reference compound] | – | – | – | – | – | – | – | – | did not |

Reference: patent US20090238754A1, “USE OF PYRENE TO CARRY PEPTIDES ACROSS THE BLOOD BRAIN BARRIER” (Adlyfe, Inc., priority 2008, published 2009)
